Results reported in PMC4522956 (2015).

Columns and labels:
[1] = biological target: T1, HIF-1β PASb labeled with FITC (human (cDNA library from the breast …, UniProt P27540 349-467, FITC (fluorescein isothiocyanate) label, sites not stated)); test: FP; at equilibrium
[2] = biological target: T1, HIF-1β PASb labeled with FITC; test: FP; PASb-3α with linoleic acid, at equilibrium
[3] = biological target: T1, HIF-1β PASb labeled with FITC; test: FP; PASb-3α with bacterial lipids, at equilibrium

T1 sequence (P27540 349-467): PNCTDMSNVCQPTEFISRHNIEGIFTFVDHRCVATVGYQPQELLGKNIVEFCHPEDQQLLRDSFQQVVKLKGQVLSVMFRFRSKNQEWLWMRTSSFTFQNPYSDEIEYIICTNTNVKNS

B1: HIF-1α PASb (domain or fragment)
chain: not shown
Kd [1]: 36 µM

B2: C-terminal Per-Arnt-Sim (PASb) domain of human HIF-3α9 (domain or fragment)
chain: GAFLSRHSLDMKFTYCDDRIAEVAGYSPDDLIGCSAYEYIHALDSDAVSKSIHTLLSKGQAVTGQYRFLARSGGYLWTQTQATVVSGGRGPQSESIVCVHFLISQVEET
Kd [2]: 10 µM
Kd [3]: 12 µM
